# Molecular target: truncated human ACE2 (residues 19-613 with a C-terminal AviTag and 6xHis-tag), biotinylated (human) (UniProt Q9BYF1)
# Assay: BLI
substance,measurement,value
"SARS-CoV-2 ancestral receptor-binding domain (RBD), recombinant (from UniProt P0DTC2) (domain or fragment)",t1/2,1.39 min

# — article PMC10372118
